Laboratory results as given in US20160193299A1, “MODIFIED NUCLEOSIDE, NUCLEOTIDE, AND NUCLEIC ACID COMPOSITIONS” (Moderna Therapeutics, Inc., priority 2011, published 2016).

Legend:
red blood cell (RBC) = assay: Example 22 non-human primate study, red blood cell (RBC) count; assay type: in vivo, cynomolgus monkey
Procedure: (§1) LNP formulations, shown in Table 31 (above), were administered to non-human primates (NHP) (cynomolgus monkey) (n=2) as intravenous injection (IV). The NHP were administered a single modified mRNA IV dose of 0.5 mg/kg, 0.05 mg/kg or 0.005 mg/kg of G-CSF or EPO in a dose volume of 0.5 mL/kg. The NHPs were bled before dosing with the modified mRNA LNP formulations to determine protein expression in the serum and a baseline complete blood count. After administration with the G-CSF modified mRNA formulation the NHP were bled at 8, 24, 48 and 72 hours to determined protein expression. After administration with the EPO modified mRNA formulation the NHP were bled at 8, 24, 48, 72 hours and 7 days to determined protein expression.

[1] = system: interferon-alpha (IFN-alpha); assay: Example 22 non-human primate study, cytokine interferon-alpha (IFN-alpha); assay type: in vivo, cynomolgus monkey
Procedure: as §1

neutrophil count [2] = assay: Example 40 multi-site IM and SC administration of G-CSF mRNA, neutrophil count; assay type: in vivo; settings: mice, intramuscular, day 3
Procedure: Injection of four doses or 2×50 ug (two sites) daily for three days (24 hrs interval) was performed. The fourth dose was administered 6 hrs before blood collection and CBC analysis. […] The mice were bled at 72 hours after the first mRNA injection (6 hours after the last mRNA dose) to determine the effect of mRNA-encoded human G-CSF on the neutrophil count. The dosing regimen is shown in Table 63 as are the resulting neutrophil counts (thousands/uL). In Table 63, an asterisks (*) indicate statistical significance at p<0.05.

neutrophil count [3] = assay: Example 41 intravenous administration of lipoplexed G-CSF mRNA, neutrophil count; assay type: in vivo; settings: mice IV, 10% lipoplex, 50 ug at days 0, 2, 4; day 5
Procedure: Neutrophils were measured at days 1, 5 and 8. Controls included non-specific mammalian RNA or the formulation buffer alone (F.Buffer). The mice were bled at days 1, 5 and 8 to determine the effect of mRNA-encoded human G-CSF to increase neutrophil count. The dosing regimen is shown in Table 64 as are the resulting neutrophil counts (thousands/uL; K/uL).

human G-CSF = assay: Example 42A saline formulation IM, serum human G-CSF; assay type: in vivo, mice; settings: G-CSF group: human G-CSF in mouse serum, IM 100 ug, 13 hours
Procedure: The mice were bled at 13 hours after the injection to determine the concentration of the human polypeptide in serum in pg/mL (G-CSF groups measured human G-CSF in mouse serum and EPO groups measured human EPO in mouse serum).

G-CSF = assay: Example 16 lipid nanoparticle in vivo study, serum G-CSF ELISA; parameters: species or system mice; settings: 100 ug
[4] = Female NHP, 0.05 mg/kg, Pre-dose
[5] = Female NHP, 0.5 mg/kg, Pre-dose
[6] = Male NHP, 0.005 mg/kg, Pre-dose

B1: G-CSF: human G-CSF mRNA SEQ ID NO: 6, polyA ~160 nt, Cap1, fully modified with 5-methylcytosine and pseudouridine (nucleic acid, listed as Homo sapiens)
chain: GGGAAAUAAGAGAGAAAAGAAGAGUAAGAAGAAAUAUAAGAGCCACCAUGGCCGGUCCCGCGACCCAAAGCCCCAUGAAACUUAUGGCCCUGCAGUUGCUGCUUUGGCACUCGGCCCUCUGGACAGUCCAAGAAGCGACUCCUCUCGGACCUGCCUCAUCGUUGCCGCAGUCAUUCCUUUUGAAGUGUCUGGAGCAGGUGCGAAAGAUUCAGGGCGAUGGAGCCGCACUCCAAGAGAAGCUCUGCGCGACAUACAAACUUUGCCAUCCCGAGGAGCUCGUACUGCUCGGGCACAGCUUGGGGAUUCCCUGGGCUCCUCUCUCGUCCUGUCCGUCGCAGGCUUUGCAGUUGGCAGGGUGCCUUUCCCAGCUCCACUCCGGUUUGUUCUUGUAUCAGGGACUGCUGCAAGCCCUUGAGGGAAUCUCGCCAGAAUUGGGCCCGACGCUGGACACGUUGCAGCUCGACGUGGCGGAUUUCGCAACAACCAUCUGGCAGCAGAUGGAGGAACUGGGGAUGGCACCCGCGCUGCAGCCCACGCAGGGGGCAAUGCCGGCCUUUGCGUCCGCGUUUCAGCGCAGGGCGGGUGGAGUCCUCGUAGCGAGCCACCUUCAAUCAUUUUUGGAAGUCUCGUACCGGGUGCUGAGACAUCUUGCGCAGCCGUGAAGCGCUGCCUUCUGCGGGGCUUGCCUUCUGGCCAUGCCCUUCUUCUCUCCCUUGCACCUGUACCUCUUGGUCUUUGAAUAAAGCCUGAGUAGGAAG
modifications: polyA ~160, Cap1, 5mC/pseudouridine modified
RBC (red blood cell (RBC); Female NHP, 0.05 mg/kg, 24 hours): 5.08 10^12/L | RBC (red blood cell (RBC); Female NHP, 0.05 mg/kg, 3 days): 5.04 10^12/L | RBC (red blood cell (RBC); Female NHP, 0.05 mg/kg, 7 days): 5.05 10^12/L | RBC (red blood cell (RBC); [4]): 5.64 10^12/L | RBC (red blood cell (RBC); Female NHP, 0.5 mg/kg, 14/18 days): 4.92 10^12/L | RBC (red blood cell (RBC); Female NHP, 0.5 mg/kg, 24 hours): 4.96 10^12/L | RBC (red blood cell (RBC); Female NHP, 0.5 mg/kg, 3 days): 4.97 10^12/L | RBC (red blood cell (RBC); Female NHP, 0.5 mg/kg, 7 days): 5.04 10^12/L | RBC (red blood cell (RBC); [5]): 5.57 10^12/L | RBC (red blood cell (RBC); Male NHP, 0.005 mg/kg, 14/18 days): 5.37 10^12/L | RBC (red blood cell (RBC); Male NHP, 0.005 mg/kg, 24 hours): 5.34 10^12/L | RBC (red blood cell (RBC); Male NHP, 0.005 mg/kg, 3 days): 5.32 10^12/L | RBC (red blood cell (RBC); Male NHP, 0.005 mg/kg, 7 days): 5.25 10^12/L | RBC (red blood cell (RBC); [6]): 5.67 10^12/L | RBC (red blood cell (RBC); Male NHP, 0.05 mg/kg, 14/18 days): 5.43 10^12/L | RBC (red blood cell (RBC); Male NHP, 0.05 mg/kg, 24 hours): 4.96 10^12/L | RBC (red blood cell (RBC); Male NHP, 0.05 mg/kg, 3 days): 5.13 10^12/L | RBC (red blood cell (RBC); Male NHP, 0.05 mg/kg, 7 days): 5.17 10^12/L | RBC (red blood cell (RBC); Male NHP, 0.05 mg/kg, Pre-dose): 5.68 10^12/L | RBC (red blood cell (RBC); Male NHP, 0.5 mg/kg, 14/18 days): 4.21 10^12/L | RBC (red blood cell (RBC); Male NHP, 0.5 mg/kg, 24 hours): 4.66 10^12/L | RBC (red blood cell (RBC); Male NHP, 0.5 mg/kg, 3 days): 4.91 10^12/L | RBC (red blood cell (RBC); Male NHP, 0.5 mg/kg, 7 days): 4.8 10^12/L | RBC (red blood cell (RBC); Male NHP, 0.5 mg/kg, Pre-dose): 5.57 10^12/L | IFN-alpha ([1]; Female NHP, 0.005 mg/kg, 4 days): 0 pg/mL | IFN-alpha ([1]; Female NHP, 0.005 mg/kg, Day 1 + 8 hr): 0 pg/mL | IFN-alpha ([1]; Female NHP, 0.005 mg/kg, Pre-dose): 0 pg/mL | IFN-alpha ([1]; Female NHP, 0.05 mg/kg, 4 days): 0 pg/mL | IFN-alpha ([1]; Female NHP, 0.05 mg/kg, Day 1 + 8 hr): 0 pg/mL | IFN-alpha [1, 4]: 0 pg/mL | IFN-alpha ([1]; Female NHP, 0.5 mg/kg, 4 days): 0 pg/mL | IFN-alpha ([1]; Female NHP, 0.5 mg/kg, Day 1 + 8 hr): 529.2 pg/mL | IFN-alpha [1, 5]: 0 pg/mL | IFN-alpha ([1]; Male NHP, 0.005 mg/kg, 4 days): 0 pg/mL | IFN-alpha ([1]; Male NHP, 0.005 mg/kg, Day 1 + 8 hr): 0 pg/mL | IFN-alpha [1, 6]: 0 pg/mL | IFN-alpha ([1]; Male NHP, 0.05 mg/kg, 4 days): 0 pg/mL | IFN-alpha ([1]; Male NHP, 0.05 mg/kg, Day 1 + 8 hr): 0 pg/mL | IFN-alpha ([1]; Male NHP, 0.05 mg/kg, Pre-dose): 0 pg/mL | IFN-alpha ([1]; Male NHP, 0.5 mg/kg, 4 days): 0 pg/mL | IFN-alpha ([1]; Male NHP, 0.5 mg/kg, Day 1 + 8 hr): 503.8 pg/mL | IFN-alpha ([1]; Male NHP, 0.5 mg/kg, Pre-dose): 0 pg/mL | increase in neutrophil count above control (neutrophil count [2]): four fold increase | increase in neutrophil count above control (neutrophil count [3]): four to five fold increase | Average Protein Product (human G-CSF): 19.8 Pg/mL, serum | G-CSF Serum Concentration 8-12 hours after administration (G-CSF; IM, saline): ~20 to 80 pg/mL | G-CSF Serum Concentration 8-12 hours after administration (G-CSF; IV (Lipoplex)): ~30 pg/mL | G-CSF Serum Concentration 8-12 hours after administration (G-CSF; SC, saline): ~10 to 40 pg/mL
